Measured values published in patent publication US8852954, “Nucleic acid molecule having binding affinity to rodent-derived IgG antibody, binder, detection reagent, and detection kit” (NEC Solution Innovators, Ltd.).

Assays:
Conditions in all cases: chain copies: 2 heavy + 2 light chains (inferred); label: 5'-biotin; stem-loop (predicted)
[1] = target: T1, mouse IgG2a (subtype 2a IgG antibody) (Mus musculus, UniProt P01863 P01863:1-330); assay: SPR; BIACORE 3000, 1:1 Langmuir
Method: (§1) The analysis of binding was performed using BIACORE 3000 (produced by GE Healthcare) according to its instruction manual. Further, from the signal intensity (RU: Resonance Unit) measured using the BIACORE, the analysis was performed with 1:1 Langmuir binding model using BIAevaluation software, and the dissociation constant between each of the aptamers and each of the mouse IgG antibodies was obtained. The conditions, method, and the like of the measurement using the BIACORE were according to the following documents.
(§2) FIGS. 5 to 7 are graphs showing the change in the signal intensity over time. […] Further, in each of the graphs, the vertical axis indicates the signal intensity (RU) measured using the BIACORE and the horizontal axis indicates the analysis time (sec). In the horizontal axis, "100 seconds" is the time when the injection of a target to be analyzed to a flow cell at the flow rate of 20 μL/min is started. The injection was maintained for 2 minutes (120 seconds), and then a running buffer was sent for 3 minutes (180 seconds) to obtain the sensorgrams showing the interaction between the aptamers and IgG. The global fitting analysis was performed and the sensorgrams were obtained under different target concentration conditions for obtaining correct Kd values.

[2] = target: T2, mouse IgG3 (subtype 3 IgG antibody) (Mus musculus, UniProt P03987-2 P03987-2:1-329); assay: SPR; BIACORE 3000, 1:1 Langmuir
Method: as §1, §2

[3] = target: T1, mouse IgG2a (subtype 2a IgG antibody); assay: SPR; second measurement (Example 3)
Method: as §1
(§3) The experiment was performed in the same manner as in Example 2 except that MIG-m034, MIG-m035, MIG-m036, MIG-m037, and MIG-m040 were used as aptamers. FIGS. 8 to 10 are graphs showing the change in the signal intensity over time and respectively show the result obtained using the subtype 1 mouse IgG, the result obtained using the subtype 2a mouse IgG, and the result obtained using the subtype 3 mouse IgG. […] The results summarized in Table 3 tell that these aptamers each have high general versatility as a secondary antibody reagent and are good in the binding force. Further, since it was considered that the base pair in the stem region and U adjacent thereto are not involved in the binding of mouse IgG from Example 1, a clone having a systematic modified base was produced to obtain the Kd value. […]

[4] = target: T2, mouse IgG3 (subtype 3 IgG antibody); assay: SPR; second measurement (Example 3)
Method: as §1, §3

[5] = target: T1, mouse IgG2a (subtype 2a IgG antibody); assay: SPR; BIACORE 3000, 1:1 Langmuir; remark: listed apart in the source
Method: as §1
(§4) The experiment was performed in the same manner as in Example 2 except that MIG-m034, MIG-m035, MIG-m036, MIG-m037, and MIG-m040 were used as aptamers. FIGS. 8 to 10 are graphs showing the change in the signal intensity over time and respectively show the result obtained using the subtype 1 mouse IgG, the result obtained using the subtype 2a mouse IgG, and the result obtained using the subtype 3 mouse IgG. […] The results summarized in Table 3 tell that these aptamers each have high general versatility as a secondary antibody reagent and are good in the binding force. Further, since it was considered that the base pair in the stem region and U adjacent thereto are not involved in the binding of mouse IgG from Example 1, a clone having a systematic modified base was produced to obtain the Kd value. Since all the clones have substantially the same binding force to each of the mouse antibody subtypes, it was considered that the stem region was not involved in the binding with respect to all the subtypes and also that all the aptamers have the same binding mode to each of the subtypes.

[6] = target: T2, mouse IgG3 (subtype 3 IgG antibody); assay: SPR; BIACORE 3000, 1:1 Langmuir; remark: listed apart in the source
Method: as §1, §4

T1 sequence (P01863 whole entry, one chain of several): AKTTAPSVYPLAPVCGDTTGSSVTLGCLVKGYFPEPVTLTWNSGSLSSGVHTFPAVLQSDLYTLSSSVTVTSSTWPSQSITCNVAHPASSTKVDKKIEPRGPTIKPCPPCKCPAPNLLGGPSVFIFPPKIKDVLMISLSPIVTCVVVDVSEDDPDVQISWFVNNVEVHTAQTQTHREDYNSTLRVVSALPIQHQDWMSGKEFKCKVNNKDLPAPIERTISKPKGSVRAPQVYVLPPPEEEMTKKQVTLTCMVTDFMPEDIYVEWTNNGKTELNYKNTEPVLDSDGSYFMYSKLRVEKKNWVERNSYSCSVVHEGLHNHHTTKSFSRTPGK
T2 sequence (P03987 other isoform, or with tags, fused parts or gaps): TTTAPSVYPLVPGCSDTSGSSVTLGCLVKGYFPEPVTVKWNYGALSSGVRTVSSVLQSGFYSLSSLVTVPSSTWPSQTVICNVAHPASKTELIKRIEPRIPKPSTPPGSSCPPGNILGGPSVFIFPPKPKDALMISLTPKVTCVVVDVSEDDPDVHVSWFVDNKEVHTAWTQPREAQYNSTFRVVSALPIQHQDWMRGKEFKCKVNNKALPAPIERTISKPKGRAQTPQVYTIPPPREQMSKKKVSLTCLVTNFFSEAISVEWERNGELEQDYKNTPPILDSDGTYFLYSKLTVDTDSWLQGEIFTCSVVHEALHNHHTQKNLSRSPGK

In the case of AAAAACGCUGAAGAGAAGACGGAAGGAGACGAAGCGT (mixed, RNA with 5'-dA5 (1-5), LNA at C6 G7 C35 G36, 3'-dT37) [MIG-m034], the Kd [1] is reported as 0.995 nM, the Kd [2] is reported as 8.8 nM and the Kd [3] is reported as 1.09 nM. For the same binder, the Kd [4] was 8.33 nM.

AAAAAGCUGAAGAGAAGACGGAAGGAGACGAAGCT (mixed, RNA with 5'-dA5 (1-5), LNA at G6 C7 G33 C34, 3'-dT35) [MIG-m035] was tested, and the Kd [5] was 1.92 nM and the Kd [6] was 139 nM.

AAAAAGCGCUGAAGAGAAGACGGAAGGAGACGAAGCGC (mixed, RNA with 5'-dA5 (1-5), DNA at G6 C7 G37 C38) [MIG-m036] was tested, and the Kd [5] was 4.61 nM and the Kd [6] was 13.8 nM.

AAAAAGCGCUGAAGAGAAGACGGAAGGAGACGAAGCGC (mixed, RNA with 5'-dA5 (1-5), DNA at 6-9 and 35-38) [MIG-m037] showed a Kd [5] of 3.7 nM and a Kd [6] of 9.85 nM.

AAAAAGCGCUGAAGAGAAGACGGAAGGAGACGAAGCGC (mixed, RNA with 5'-dA5 (1-5), 2'-OMe U10) [MIG-m040] gave a Kd [5] of 1.23 nM and a Kd [6] of 3.46 nM.

Work on AAAAAGCGCUGAAGAGAAGACGGAAGGAGACGAAGCGC (mixed, RNA with 5'-dA5 (1-5), DNA at 6-9 and 35-38, 2'-OMe U10) [MIG-m041] yielded a Kd [1] of 0.959 nM and a Kd [2] of 8.4 nM.

AAAAACGCUGAAGAGAAGACGGAAGGAGACGAAGCGT (mixed, RNA with 5'-dA5 (1-5), LNA at C6 G7 C35 G36, 2'-OMe U9, 3'-dT37) [MIG-m042] gave a Kd [1] of 0.436 nM and a Kd [2] of 5.57 nM.
